Results as given in IntAct's records for PubMed 11042109.

B1: NEDD4 family-interacting protein 1 (Mus musculus), Q8R0W6 (parent)
chain: MALALAALAAVEPACGSGYQQLQNEEEPGEPEQTAGDAPPPYSSITAESAAYFDYKDESGFPKPPSYNVATTLPSYDEAERTKTEATIPLVPGRDEDFVGRDDFDDTDQLRIGNDGIFMLTFFMAFLFNWIGFFLSFCLTTSAAGRYGAISGFGLSLIKWILIVRFSTYFPGYFDGQYWLWWVFLVLGFLLFLRGFINYAKVRKMPETFSNLPRTRVLFIY
B2: Protein BEAN1 (Mus musculus), Q9EQG5 (parent)
chain: MSFKRPCPLARYNRTSYFYPTTFSESSEHSHLLVSPVLVASAVIGVVITLSCITIIVGSIRRDRQARIQRHHHRHRRHHHHHRHRRRRHREYASGGHTHSRSSPRMPYACSPAEDWPPPLDVSSEGDVDVTVLWELYPDSPPGYEECMGPGATQLYVPTDAPPPYSMTDSCPRLNGALDSDSGQSRSHRQQEQRTQGQSRLHTVSMDTLPPYEAVCGTGSPSDLLPLPGPEPWPSNSQGSPIPTQAPMPSPERIV
B3: WW domain-binding protein 2 (Mus musculus), P97765 (parent)
chain: MALNKNHSEGGGVIVNNTESILMSYDHVELTFNDMKNVPEAFKGTKKGTVYLTPYRVIFLSKGKDAMQSFMMPFYLMKDCEIKQPVFGANFIKGIVKAEAGGGWEGSASYKLTFTAGGAIEFGQRMLQVASQASRGEVPNGAYGYPYMPSGAYVFPPPVANGMYPCPPGYPYPPPPPEFYPGPPMMDGAMGYVQPPPPPYPGPMEPPVSGPSAPATPAAEAKAAEAAASAYYNPGNPHNVYMPTSQPPPPPYYPPEDKKTQ
B4: WW domain-binding protein 1 (Mus musculus), P97764 (parent)
chain: MARASSRNSSEEAWGSLQAPQQQQSPAASSLEGAIWRRAGTQTRALDTILYHPQQSHLLRELCPGVNTQPYLCETGHCCGETGCCTYYYELWWFWLLWTVLILFSCCCAFRHRRAKLRLQQQQRQREINLLAYHGACHGAGPVPTGSLLDLRLLSAFKPPAYEDVVHHPGTPPPPYTVGPGYPWTTSSECTRCSSESSCSAHLEGTNVEGVSSQQSALPHQEGEPRAGLSPVHIPPSCRYRRLTGDSGIELCPCPDSSEGEPLKEARASASQPDLEDHSPCALPPDSVSQVPPMGLASSCGDIP
B5: Protein TMEPAI (Mus musculus), Q9D7R2 (parent)
chain: MSPARATAQRSLFPSMEITELEFVQIVVIVVVMMVMVVMITCLLSHYKLSARSFISRHSQARRRDDGLSSEGCLWPSESTVSGGMPEPQVYAPPRPTDRLAVPPFIQRSRFQPTYPYLQHEIALPPTISLSDGEEPPPYQGPCTLQLRDPEQQLELNRESVRAPPNRTIFDSDLIDSTMLGGPCPPSSNSGISATCYSSGGRMEGPPPTYSEVIGHYPGSSFQHQQSNGPSSLLEGTRLHHSHIAPLENKEKEKQKGHPL
B6: Lipopolysaccharide-induced tumor necrosis factor-alpha factor homolog (Mus musculus), Q9JLJ0 (parent)
chain: MSAPGPYQAAAGPSVVPTAPPTYEETVGVNSYYPTPPAPMPGPATGLITGPDGKGMNPPSYYTQPVPVPNANAIAVQTVYVQQPVSFYDRPVQMCCPSCSKMIVTQLSYNAGALTWLSCGSLCLLGCVAGCCFIPFCVDALQDVDHYCPNCKALLGTYKRL
B7: RING finger protein 11 (Mus musculus), Q9QYK7 (parent)
chain: MGNCLKSPTSDDISLLHESQSDRASFGEGTEPDQEPPPPYQEQVPVPIYHPTPSQTRLATQLTEEEQIRIAQRIGLIQHLPKGVYDPGRDGSEKKIRECVICMMDFVYGDPIRFLPCMHIYHLDCIDDWLMRSFTCPSCMEPVDAALLSSYETN

Variants of: B1
Details: with nedd4_mouse Nedd4, P46935
Target sequence in this assay (P46935 whole entry): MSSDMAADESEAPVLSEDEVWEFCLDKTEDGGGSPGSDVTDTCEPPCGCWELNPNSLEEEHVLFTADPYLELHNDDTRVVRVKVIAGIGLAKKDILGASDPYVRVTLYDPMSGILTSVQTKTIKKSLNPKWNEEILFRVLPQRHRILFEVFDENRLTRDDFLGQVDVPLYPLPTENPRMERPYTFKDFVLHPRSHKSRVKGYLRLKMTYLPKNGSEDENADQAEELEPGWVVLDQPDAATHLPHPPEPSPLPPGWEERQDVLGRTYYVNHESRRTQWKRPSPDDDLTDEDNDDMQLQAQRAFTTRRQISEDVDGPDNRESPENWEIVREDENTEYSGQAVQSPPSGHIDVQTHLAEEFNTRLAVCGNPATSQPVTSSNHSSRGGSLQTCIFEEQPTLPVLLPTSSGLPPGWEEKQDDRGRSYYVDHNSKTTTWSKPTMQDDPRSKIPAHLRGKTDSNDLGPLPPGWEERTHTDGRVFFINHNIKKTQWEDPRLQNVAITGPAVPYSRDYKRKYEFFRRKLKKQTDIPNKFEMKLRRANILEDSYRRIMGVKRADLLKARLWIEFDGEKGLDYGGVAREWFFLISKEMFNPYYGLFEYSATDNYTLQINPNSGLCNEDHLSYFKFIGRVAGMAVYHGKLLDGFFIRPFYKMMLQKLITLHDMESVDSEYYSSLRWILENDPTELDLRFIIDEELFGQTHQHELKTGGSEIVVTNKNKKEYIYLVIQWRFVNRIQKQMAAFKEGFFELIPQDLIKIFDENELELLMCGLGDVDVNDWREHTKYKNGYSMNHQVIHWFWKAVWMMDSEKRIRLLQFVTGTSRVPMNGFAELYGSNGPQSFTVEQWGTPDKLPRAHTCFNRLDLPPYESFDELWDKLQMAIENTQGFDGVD
For Y42A, the “effect of a mutation on the interaction” value was “decreasing interaction strength”.

Variants of: B2
Details: with nedd4_mouse Nedd4, P46935
Target sequence in this assay (P46935 whole entry): as above
In the case of Y144A, the “effect of a mutation on the interaction” value is reported as “disrupting interaction strength”. Y144A;Y165A was tested, and the “effect of a mutation on the interaction” value was “disrupting interaction strength”. Y165A was tested, and the “effect of a mutation on the interaction” value was “disrupting interaction strength”.

Variants of: B2
Details: with nedd4_mouse Nedd4, P46935
Remark: another data set of the same source
Target sequence in this assay (P46935 whole entry): as above
With Y144A;Y165A the “effect of a mutation on the interaction” value was “disrupting interaction strength”.

Variants of: B3
Details: with nedd4_mouse Nedd4, P46935
Target sequence in this assay (P46935 whole entry): as above
Y252A was tested, and the “effect of a mutation on the interaction” value was “decreasing interaction strength”.

Variants of: B3
Details: with nedd4_mouse Nedd4, P46935
Remark: another data set of the same source
Target sequence in this assay (P46935 whole entry): as above
Y200A was tested, and the “effect of a mutation on the interaction” value was “decreasing interaction strength”.

Variants of: B3
Details: with nedd4_mouse Nedd4, P46935
Remark: another data set of the same source
Target sequence in this assay (P46935 whole entry): as above
In the case of Y200A, the “effect of a mutation on the interaction” value is reported as “decreasing interaction strength”.

Variants of: B3
Details: with nedd4_mouse Nedd4, P46935
Remark: another data set of the same source
In the case of Y200A, the “effect of a mutation on the interaction” value is reported as “disrupting interaction strength”.

Variants of: B4
Details: with nedd4_mouse Nedd4, P46935
In the case of Y176A, the “effect of a mutation on the interaction” value is reported as “disrupting interaction strength”.

Variants of: B4
Details: with nedd4_mouse Nedd4, P46935
Remark: another data set of the same source
In the case of Y162A, the “effect of a mutation on the interaction” value is reported as “disrupting interaction strength”.

Variants of: B5
Details: with nedd4_mouse Nedd4, P46935
Y139A was tested, and the “effect of a mutation on the interaction” value was “decreasing interaction strength”.

Variants of: B5
Details: with nedd4_mouse Nedd4, P46935
Remark: another data set of the same source
For Y210A, the “effect of a mutation on the interaction” value was “disrupting interaction strength”.

Variants of: B5
Details: with nedd4_mouse Nedd4, P46935
Remark: another data set of the same source
With Y210A the “effect of a mutation on the interaction” value was “disrupting interaction strength”.

Variants of: B6
Details: with nedd4_mouse Nedd4, P46935
For Y23A, the “effect of a mutation on the interaction” value was “disrupting interaction strength”.

Variants of: B7
Details: with nedd4_mouse Nedd4, P46935
With Y40A the “effect of a mutation on the interaction” value was “disrupting interaction”.

Variants of: B7
Details: with nedd4_mouse Nedd4, P46935
Remark: another data set of the same source
With Y40A the “effect of a mutation on the interaction” value was “disrupting interaction strength”.
